Target: ef1a2_human EEF1A2 (UniProt Q05639)
Sequence of UniProt Q05639 (Q05639 whole entry): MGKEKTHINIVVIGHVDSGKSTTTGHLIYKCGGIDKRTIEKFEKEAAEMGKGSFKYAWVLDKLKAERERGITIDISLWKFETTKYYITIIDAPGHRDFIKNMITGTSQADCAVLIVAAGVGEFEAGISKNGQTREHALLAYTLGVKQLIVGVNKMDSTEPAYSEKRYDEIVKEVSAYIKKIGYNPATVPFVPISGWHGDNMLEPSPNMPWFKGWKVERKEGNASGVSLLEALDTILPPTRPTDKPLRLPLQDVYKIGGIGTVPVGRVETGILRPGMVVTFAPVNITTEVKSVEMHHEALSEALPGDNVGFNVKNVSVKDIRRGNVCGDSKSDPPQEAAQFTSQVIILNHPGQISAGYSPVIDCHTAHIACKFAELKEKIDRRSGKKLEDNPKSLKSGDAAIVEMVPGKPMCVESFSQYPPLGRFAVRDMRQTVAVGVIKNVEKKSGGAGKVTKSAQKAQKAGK

Substance: Leucine-rich repeat serine/threonine-protein kinase 2 (Homo sapiens), Q5S007 G2019S
- effect of a mutation on the interaction: increasing interaction

— IntAct's records for PubMed 19559761
